From patent publication US20240318159

Tested on: mND1 TALE_L-BE_41-N(G108) + TALE_R-BE_41-C(G43) split base editor (synthetic)
Test: cell_activity
Conditions: m.2820G>A allele in mouse cells

Work on “CATTAGTAGAACGCA (double strand) [mND1 G2820 target]” yielded an activity of 56.4%.
